± gives the uncertainty stated by the source.
B1: library; numbered along this chain (parent)
chain: MEVVDPQQLGMFTEGELMSVGMDTFIHRIDSTEVIYQPRRKRAKLIGKYLMGDLLGEGSYGKVKEVLDSETLCRRAVKILKKKKLRRIPNGEANVKKEIQLLRRLRHKNVIQLVDVLYNEEKQKMYMVMEYCVCGMQEMLDSVPEKRFPVCQAHGYFCQLIDGLEYLHSQGIVHKDIKPGNLLLTTGGTLKISDLGVAEALHPFAADDTCRTSQGSPAFQPPEIANGLDTFSGFKVDIWSAGVTLYNITTGLYPFEGDNIYKLFENIGKGSYAIPGDCGPPLSDLLKGMLEYEPAKRFSIRQIRQHSWFRKKHPPAEAPVPIPPSPDTKDRWRSMTVVPYLEDLHGADEDEDLFDIEDDIIYTQDFTVPGQVPEEEASHNGQRRGLPKAVCMNGTEAAQLSTKSRAEGRAPNPARKACSASSKIRRLSACKQQ

Variants of: B1
Test: STK11 functional score (HeLa growth suppression), rescaled enrichment; synonymous median = 1, nonsense median = 0 (normalised score)
Details: with HeLa; variant type: missense
Method: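 Deep mutational scan (TileSeq/POPCode codon randomisation) of full-length codon-optimised STK11 cDNA integrated at a Bxb1 landing pad (AAVS1) in HeLa cells. Restoring functional STK11 suppresses HeLa proliferation. Variant frequencies were measured by NGS before and after about two weeks of growth. The error-corrected enrichment log-ratio was rescaled so that synonymous median = 1 and nonsense median = 0, scores above 1 were compressed, and codon-level and three biological replicate scores were combined; error is the bootstrapped standard error. Scale: synonymous median = 1, nonsense median = 0; below 0.5 = damaging.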

Row | Variant | STK11 functional score
1 | L101Y | 1.21 ± 0.079
2 | L101S | 1.43 ± 0.37
3 | L101M | 1.62 ± 0.22
4 | L101P | 0.045 ± 0.083
5 | L101Q | 0.894 ± 1
6 | L101V | 0.836 ± 0.1
7 | L101I | 1.06 ± 0.38
8 | K84T | 0.646 ± 0.11
9 | K84L | 1.64 ± 0.17
10 | K84C | 1.68 ± 0.42
11 | K84P | 1.52 ± 0.45
12 | K84N | 0.967 ± 0.3
13 | K84V | 0.24 ± 0.085
14 | K84W | 1.14 ± 0.17
15 | K84G | 1.47 ± 0.4
16 | K84S | 1.71 ± 0.19
17 | K84E | 0.845 ± 0.33
18 | I88Y | 1.67 ± 0.21
19 | I88Q | -0.36 ± 0.084
20 | I88V | 0.87 ± 0.1
21 | I88G | 0.665 ± 0.23
22 | I88D | 1.58 ± 0.25
23 | I88C | 1.07 ± 0.28
24 | I88F | 0.793 ± 0.079

Row | Variant | STK11 functional score
25 | I88S | 1.16 ± 0.26
26 | I88E | 1.53 ± 0.18
27 | I88L | 1.24 ± 0.26
28 | I88R | 1.65 ± 0.19
29 | I88T | 1.48 ± 0.39
30 | I88W | 0.401 ± 0.49
31 | I88M | 0.899 ± 0.094
32 | I79W | -0.0803 ± 0.077
33 | I79R | 0.967 ± 0.28
34 | I79S | 0.761 ± 0.099
35 | I79C | 0.264 ± 0.28
36 | I79M | 0.465 ± 0.1
37 | I79Q | 1.51 ± 0.18
38 | I79F | 0.321 ± 0.076
39 | I79V | 0.313 ± 0.085
40 | I79E | 0.0444 ± 0.2
41 | I79P | 0.0986 ± 0.19
42 | I79G | 0.345 ± 0.22
43 | I79Y | -0.0325 ± 0.073
44 | I79H | -0.113 ± 0.19
45 | I79L | 0.451 ± 0.14
46 | I99S | 0.869 ± 0.37
47 | I99Y | 0.0269 ± 0.081
48 | I99Q | 0.527 ± 0.62

Row | Variant | STK11 functional score
49 | I99L | 0.855 ± 0.1
50 | I99G | 0.767 ± 0.3
51 | I99P | 0.0871 ± 0.35
52 | I99F | 1.64 ± 0.16
53 | I99M | 1.07 ± 0.36
54 | I99E | 1.65 ± 0.16
55 | I99R | 0.708 ± 0.16
56 | I99T | 1.45 ± 0.43
57 | I99W | 0.631 ± 0.11
58 | I99V | 0.876 ± 0.11
59 | I99C | 1.57 ± 0.18
60 | I99D | 0.335 ± 0.1
61 | Q100R | 1.34 ± 0.13
62 | Q100D | 1.57 ± 0.19
63 | Q100T | 1.3 ± 0.43
64 | Q100W | 0.696 ± 0.17
65 | Q100A | 0.571 ± 0.42
66 | Q100H | 1.28 ± 0.4
67 | Q100Y | 0.248 ± 0.19
68 | Q100S | 1.1 ± 0.18
69 | Q100V | 1.39 ± 0.2
70 | Q100P | 0.999 ± 0.14
71 | Q100G | 1.17 ± 0.14
72 | Q100L | 0.857 ± 0.23

Row | Variant | STK11 functional score
73 | Q100E | 1.25 ± 0.76
74 | Q100F | 0.976 ± 0.19
75 | Q100I | 1.64 ± 0.19
76 | K82W | 1.33 ± 0.33
77 | K82T | 1.56 ± 0.17
78 | K82G | 1.23 ± 0.17
79 | K82F | 0.966 ± 0.26
80 | K82H | 1.08 ± 0.22
81 | K82I | 1.3 ± 0.54
82 | K82L | 1.49 ± 0.16
83 | K82A | 1.43 ± 0.15
84 | K82S | 1.15 ± 0.26
85 | K82C | 1.23 ± 0.15
86 | K82Q | 1.7 ± 0.18
87 | K82V | 0.966 ± 0.26
88 | K82P | 1.69 ± 0.18
89 | K82D | 1.17 ± 0.19
90 | K82E | 1.36 ± 0.75
91 | K82R | 1.66 ± 0.4
92 | E92W | 1.03 ± 0.61
93 | E92M | -0.344 ± 0.13
94 | E92T | 1.62 ± 0.18
95 | E92V | 1.02 ± 0.09
96 | E92L | 1.01 ± 0.15

Row | Variant | STK11 functional score
97 | E92N | 1.39 ± 0.11
98 | E92S | 0.979 ± 0.19
99 | E92Q | 1.16 ± 0.51
100 | E92C | 1.68 ± 0.18
101 | E92R | 1.64 ± 0.4
102 | E92Y | 1.32 ± 0.26
103 | E92I | -0.0755 ± 0.16
104 | E92A | 1.31 ± 0.35
105 | E92F | 1.56 ± 0.53
106 | P89S | 0.816 ± 0.17
107 | P89W | 1.08 ± 0.16
108 | P89E | 1.68 ± 0.19
109 | P89C | 1.29 ± 0.072
110 | P89N | 1.67 ± 0.19
111 | P89G | 0.213 ± 0.086
112 | P89A | 1.1 ± 0.3
113 | P89D | 0.0497 ± 0.083
114 | P89T | 0.786 ± 0.13
115 | P89V | 0.683 ± 0.088
116 | P89H | 1.3 ± 0.17
117 | P89Y | 0.644 ± 0.31
118 | P89Q | 1.4 ± 0.12
119 | P89R | 0.754 ± 0.1
120 | P89M | 1.55 ± 0.16

Row | Variant | STK11 functional score
121 | P89L | 0.532 ± 0.24
122 | P89I | 1.41 ± 0.25
123 | K83A | 1.58 ± 0.36
124 | K83S | 1.7 ± 0.19
125 | K83Q | 0.343 ± 0.37
126 | K83C | 1.39 ± 0.23
127 | K83P | 1.64 ± 0.41
128 | K83Y | 1.15 ± 0.15
129 | K83T | 0.156 ± 0.58
130 | K83I | 1.29 ± 0.08
131 | K83W | 1.53 ± 0.11
132 | K83L | 0.484 ± 0.22
133 | K83E | 1.48 ± 0.68
134 | K83N | 1.3 ± 0.39
135 | K83V | 1.05 ± 0.48
136 | K78S | -0.111 ± 0.1
137 | K78Q | 1.1 ± 0.12
138 | K78F | 0.0316 ± 0.078
139 | K78H | -0.114 ± 0.081
140 | K78G | 0.0293 ± 0.084
141 | K78N | 0.219 ± 0.18
142 | K78Y | -0.374 ± 0.076
143 | K78I | -0.0791 ± 0.14
144 | K78W | -0.148 ± 0.077

Row | Variant | STK11 functional score
145 | K78T | 0.086 ± 0.54
146 | K78C | 0.21 ± 0.078
147 | K78V | -0.0951 ± 0.078
148 | K78A | -0.0486 ± 0.23
149 | K78D | -0.161 ± 0.078
150 | K78P | -0.226 ± 0.12
151 | K78L | 0.107 ± 0.12
152 | V95N | 1.6 ± 0.14
153 | V95S | 1.4 ± 0.18
154 | V95A | 1.28 ± 0.19
155 | V95R | 1.02 ± 0.16
156 | V95W | 0.452 ± 0.08
157 | V95H | 1.64 ± 0.19
158 | V95Y | 1.55 ± 0.17
159 | V95T | 1.62 ± 0.22
160 | V95D | 1.5 ± 0.27
161 | V95P | 1.65 ± 0.3
162 | V95G | 0.326 ± 0.15
163 | V95C | 0.913 ± 0.28
164 | V95L | 0.889 ± 0.12
165 | V95Q | 1.46 ± 0.45
166 | V95F | 0.945 ± 0.26
167 | V95E | 0.927 ± 0.43
